# Experimental data as given in the supplement of paper PMC7877785.
# ± gives the uncertainty stated by the source.
# Assay: self-splicing fitness, log relative to wild type (ln ratio); higher = more splicing; Tetrahymena group I intron in knt gene, E. coli kanamycin selection, DiMSum; sequences stand for … in CUCUCU…GGAGGGAAAAGUUAUCAGGCAUGCACCUGGUAGCUAGUCUUUAAACCAAUAGAUUGCAUCGGUUUAAAAGGCAAGACCGUCAAAUUGCGGGAAAGGGGUCAACAGCCGUUCAGUACCAAGUCUCAGGGGAAACUUUGAGAUGGCCUUGCAAAGGGUAUGGUAAUAAGCUGACGGACAUGGUCCUAACCACGCAGCCAAGUCCUAAGUCAACAGAUCUUCUGUUGAUAUGGAUGCAGUUCACAGACUAAAUGUCGGUCGGGGAAGAUGUAUUCUUCUCAUAAGAUAUAGUCGGACCUCUCCUUAAUGGGAGCUAGCGGAUGAAGUGAUGCAACACUGGAGCCGCUGGGAACUAAUUUGUAUGCGAAAGUAUAUUGAUUAGUUUUGGAGUACUCGUGGUCG
# How it was run: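 Library with all eight P1ex-region intron nucleotides randomised, intron inside the knt kanamycin-resistance gene on pET-22b(+), in E. coli BL21(DE3). Cells grew overnight at 37°C or 30°C on LB agar with or without 25 μg/mL kanamycin (plus 100 μg/mL carbenicillin, 50 μM IPTG, 0.2% rhamnose), in six replicate transformations. Pooled colonies were amplicon-sequenced on Illumina HiSeq 2500. DiMSum fitness is the error-weighted combination of wild-type-normalised replicate fold changes, kanamycin versus none.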
sequence,measurement,setting,value
AAGCAGCAAUAUUACGCUCA,self-splicing fitness (ln),30 °C,0.661 ± 0.12
same,self-splicing fitness (ln),37 °C,-0.0809 ± 0.2
CAAUAGCAAUAUUACGUAAC,self-splicing fitness (ln),30 °C,-3.94 ± 0.35
same,self-splicing fitness (ln),37 °C,-3.27 ± 0.43
AGCCAGCAAUAUUACGGCUG,self-splicing fitness (ln),30 °C,-2.52 ± 0.17
same,self-splicing fitness (ln),37 °C,-1.53 ± 0.2
GUACAGCAAUAUUACGACUA,self-splicing fitness (ln),30 °C,-1.16 ± 0.13
same,self-splicing fitness (ln),37 °C,-0.637 ± 0.12
UCGCAGCAAUAUUACGCCGA,self-splicing fitness (ln),30 °C,-1.83 ± 0.19
same,self-splicing fitness (ln),37 °C,-2.26 ± 0.22
GAUUAGCAAUAUUACGAACU,self-splicing fitness (ln),30 °C,-0.696 ± 0.15
same,self-splicing fitness (ln),37 °C,-0.559 ± 0.19
CAAUAGCAAUAUUACGGGAU,self-splicing fitness (ln),30 °C,-3.36 ± 0.31
same,self-splicing fitness (ln),37 °C,-2.57 ± 0.35
UGCAAGCAAUAUUACGACCU,self-splicing fitness (ln),30 °C,-0.737 ± 0.07
same,self-splicing fitness (ln),37 °C,-0.219 ± 0.089
ACCGAGCAAUAUUACGAGAC,self-splicing fitness (ln),30 °C,-3.81 ± 0.25
same,self-splicing fitness (ln),37 °C,-2.84 ± 0.4
GCUGAGCAAUAUUACGAUCC,self-splicing fitness (ln),30 °C,-1.34 ± 0.15
same,self-splicing fitness (ln),37 °C,0.743 ± 0.24
AGCCAGCAAUAUUACGGUUG,self-splicing fitness (ln),30 °C,-0.979 ± 0.051
same,self-splicing fitness (ln),37 °C,-0.86 ± 0.075
AGCAAGCAAUAUUACGCAGU,self-splicing fitness (ln),30 °C,-3.01 ± 0.18
same,self-splicing fitness (ln),37 °C,-1.28 ± 0.14
ACAAAGCAAUAUUACGCCAA,self-splicing fitness (ln),30 °C,-2.34 ± 0.24
same,self-splicing fitness (ln),37 °C,-1.86 ± 0.18
UUAGAGCAAUAUUACGCAAG,self-splicing fitness (ln),30 °C,-1.18 ± 0.14
same,self-splicing fitness (ln),37 °C,-0.488 ± 0.22
GCUGAGCAAUAUUACGAAAG,self-splicing fitness (ln),30 °C,-1.75 ± 0.2
same,self-splicing fitness (ln),37 °C,-1.46 ± 0.23
UGUGAGCAAUAUUACGUCGG,self-splicing fitness (ln),30 °C,-2.11 ± 0.2
same,self-splicing fitness (ln),37 °C,-1.35 ± 0.29
UGCGAGCAAUAUUACGGCAU,self-splicing fitness (ln),30 °C,-2.64 ± 0.27
CGAAAGCAAUAUUACGGCUC,self-splicing fitness (ln),30 °C,-2.88 ± 0.18
same,self-splicing fitness (ln),37 °C,-1.73 ± 0.21
UAUCAGCAAUAUUACGACAC,self-splicing fitness (ln),30 °C,-2.03 ± 0.2
same,self-splicing fitness (ln),37 °C,0.634 ± 0.23
UGAAAGCAAUAUUACGUGAG,self-splicing fitness (ln),30 °C,-0.356 ± 0.06
same,self-splicing fitness (ln),37 °C,-0.158 ± 0.084
ACUAAGCAAUAUUACGUGUC,self-splicing fitness (ln),30 °C,-3.48 ± 0.14
same,self-splicing fitness (ln),37 °C,-3.57 ± 0.21
AAAUAGCAAUAUUACGGAGU,self-splicing fitness (ln),30 °C,-3.7 ± 0.2
same,self-splicing fitness (ln),37 °C,-2.61 ± 0.15
CGGAAGCAAUAUUACGAUAU,self-splicing fitness (ln),37 °C,-2.82 ± 0.26
UGGAAGCAAUAUUACGUUUC,self-splicing fitness (ln),30 °C,-2.56 ± 0.24
same,self-splicing fitness (ln),37 °C,-2.82 ± 0.38
UAGGAGCAAUAUUACGAUCU,self-splicing fitness (ln),30 °C,-3.09 ± 0.4
AUAGAGCAAUAUUACGCAGG,self-splicing fitness (ln),30 °C,-3.06 ± 0.2
same,self-splicing fitness (ln),37 °C,-1.86 ± 0.23
CCCGAGCAAUAUUACGAUGA,self-splicing fitness (ln),30 °C,-3.45 ± 0.43
same,self-splicing fitness (ln),37 °C,-2.4 ± 0.28
CACGAGCAAUAUUACGUCUC,self-splicing fitness (ln),30 °C,-2.49 ± 0.27
same,self-splicing fitness (ln),37 °C,-3.63 ± 0.34
CUAUAGCAAUAUUACGAGCU,self-splicing fitness (ln),30 °C,-1.79 ± 0.48
GCAAAGCAAUAUUACGAUUC,self-splicing fitness (ln),30 °C,-1.26 ± 0.082
same,self-splicing fitness (ln),37 °C,-0.245 ± 0.1
CAUGAGCAAUAUUACGCGGC,self-splicing fitness (ln),30 °C,-2.22 ± 0.43
same,self-splicing fitness (ln),37 °C,-2.58 ± 0.29
AUAGAGCAAUAUUACGAGCU,self-splicing fitness (ln),30 °C,-1.71 ± 0.18
same,self-splicing fitness (ln),37 °C,-1.15 ± 0.16
CUAUAGCAAUAUUACGGAGA,self-splicing fitness (ln),30 °C,-2.82 ± 0.3
same,self-splicing fitness (ln),37 °C,-1.38 ± 0.33
GCAGAGCAAUAUUACGUCUU,self-splicing fitness (ln),30 °C,-0.897 ± 0.12
same,self-splicing fitness (ln),37 °C,-2.22 ± 0.21
CCCAAGCAAUAUUACGCCCG,self-splicing fitness (ln),30 °C,-2.76 ± 0.33
same,self-splicing fitness (ln),37 °C,-2.44 ± 0.42
UAUAAGCAAUAUUACGAAAG,self-splicing fitness (ln),30 °C,-1.17 ± 0.13
same,self-splicing fitness (ln),37 °C,-2.44 ± 0.21
AACAAGCAAUAUUACGAUAG,self-splicing fitness (ln),30 °C,-3.24 ± 0.17
same,self-splicing fitness (ln),37 °C,-2.24 ± 0.18
GGUUAGCAAUAUUACGGUUG,self-splicing fitness (ln),30 °C,-2.73 ± 0.32
same,self-splicing fitness (ln),37 °C,-1.57 ± 0.33
